This note sets out measurements from PMC9813358, “Insights into the GSDMB-mediated cellular lysis and its targeting by IpaH7.8” (Nature Communications, 2023).

The labels stand for the following.
B1: human GSDMD [human] / IpaH7.8 protein (residues 23–565) [Shigella flexneri] (parent)
chain 1: MGSAFERVVRRVVQELDHGGEFIPVTSLQSSTGFQPYCLVVRKPSSSWFWKPRYKCVNLSIKDILEPDAAEPDVQRGRSFHFYDAMDGQIQGSVELAAPGQAKIAGGAAVSDSSSTSMNVYSLSVDPNTWQTLLHERHLRQPEHKVLQQLRSRGDNVYVVTEVLQTQKEVEVTRTHKREGSGRFSLPGATCLQGEGQGHLSQKKTVTIPSGSTLAFRVAQLVIDSDLDVLLFPDKKQRTFQPPATGHKRSTSEGAWPQLPSGLSMMRCLHNFLTDGVPAEGAFTEDFQGLRAEVETISKELELLDRELCQLLLEGLEGVLRDQLALRALEEALEQGQSLGPVEPLDGPAGAVLECLVLSSGMLVPELAIPVVYLLGALTMLSETQHKLLAEALESQTLLGPLELVGSLLEQSAPWQERSTMSLPPGLLGNSWGEGAPAWVLLDECGLELGEDTPHVCWEPQAQGRMCALYASLALLSGLSQEPH
chain 2: SNEHYLRILTEWEKNSSPGEERGIAFNRLSQCFQNQEAVLNLSDLNLTSLPELPKHISALIVENNKLTSLPKLPAFLKELNADNNRLSVIPELPESLTTLSVRSNQLENLPVLPNHLTSLFVENNRLYNLPALPEKLKFLHVYYNRLTTLPDLPDKLEILCAQRNNLVTFPQFSDRNNIRQKEYYFHFNQITTLPESFSQLDSSYRINISGNPLSTRVLQSLQRLTSSPDYHGPQIYFSMSDGQQNTLHRPLADAVTAWFPENKQSDVSQIWHAFEHEEHANTFSAFLDRLSDTVSARNTSGFREQVAAWLEKLSASAELRQQSFAVAADATESCEDRVALTWNNLRKTLLVHQASEGLFDNDTGALLSLGREMFRLEILEDIARDKVRTLHFVDEIEVYLAFQTMLAEKLQLSTAVKEMRFYGVSGVTANDLRTAEAMVRSREENEFTDWFSLWGPWHAVLKRTEADRWAQAEEQKYEMLENEYSQRVADRLKASGLSGDADAEREAGAQVMRETEQQIYRQLTDEVLALRLSENGSRLHHS

Variants of B1 are the subject of this experiment. Nature of the experiment: ITC. The note with it: with IpaH7.8 protein (residues 23–565) [Shigella flexneri].
Take chain 1 S124R: the Kd was 0.23 µM.
